Source: article PMC9601964

Biological target: T1, RihR (XRE-family regulator) (Azorhizobium caulinodans ORS571) (UniProt A8IKA5)
T1 sequence: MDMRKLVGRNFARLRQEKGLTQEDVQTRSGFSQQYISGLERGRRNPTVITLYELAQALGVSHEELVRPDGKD
Test: EMSA
Conditions: 50 mM Tris-HCl pH 8.3, 0.25 M KCl, 2.5 mM DTT, 5 mM MgCl2, 0.25 mg/mL BSA, 0.05 mg/mL poly(dI-dC), 2.5 mM EDTA, 1% glycerol; 20 uL, 20 min, room temperature; 6%

CGGAATTCATCGCGGTGGTATTTTTGCGAGGAAGGCCGCGTTGGAAAACGATAGTCGGTGCTCGTTCATGCCGGCAAATGAGAAGATCGCCCATAGGTATGCAAAAATGATATGATAACAGCTGACCAGCTTTAGCCCGTGCGGACGAGGGGGAGAGGATGCGTTTCAGTCATCTAGAGC (double strand) [non-specific control promoter (Pcontrol)]
binding: no binding
